Measurements as given in paper PMC6748660.

Target: full-length mScarlet-tagged tau (2N4R) (human) (UniProt P10636)
Test: TIRF microscopy, condensate enrichment assay

GFP-tagged tau “bonsai” construct (fusion between the N- and C-terminus, lacking the MTBD)
fold enrichment within mScarlet-2N4R condensates over the lattice: 1.3 fold
